The source of these data is patent US20110165605A1.

Data set [1] has as its target casein (Wako Pure Chemical Industries, Ltd.).
For data set [2], the target named is separated soybean protein (Fuji Pro F, FUJI OIL CO., LTD.).
In data set [3] the target is β-lactoglobulin (Sigma Co.).
Data set [4] has as its target wheat gluten (Viten, ROQUETTE Co.).
Data set [5] concerns the target T1, α-lactalbumin (Sigma Co.).
T1 sequence (P00711 20-142, species assumed, looked up): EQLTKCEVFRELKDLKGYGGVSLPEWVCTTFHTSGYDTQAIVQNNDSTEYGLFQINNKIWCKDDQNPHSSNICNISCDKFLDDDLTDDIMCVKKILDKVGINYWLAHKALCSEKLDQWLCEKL

The target in data set [6] is wheat gluten (Viten, ROQUETTE Co.). In words: cell-based or functional assay.
The target in data set [7] is casein (Wako Pure Chemical Industries, Ltd.). In words: cell-based or functional assay.
Data set [8] has as its target separated soybean protein (Fuji Pro F, FUJI OIL CO., LTD.). The data set is described as follows: cell-based or functional assay.

B1: mature form of wild-type protein-glutaminase derived from the Chryseobacterium proteolyticum 9670 strain (protein)
chain: LASVIPDVATLNSLFNQIKNQSCGTSTASSPCITFRYPVDGCYARAHKMRQILMNNGYDCEKQFVYGNLKASTGTCCVAWSYHVAILVSYKNASGVTEKRIIDPSLFSSGPVTDTAWRNACVNTSCGSASVSSYANTAGNVYYRSPSNSYLYDNNLINTNCVLTKFSLLSGCSPSPAPDVSSCGF
Consider B1, for which the Relative activity (%) came out at 1020% in data set [1]; 127% in data set [2]; 61% in data set [3]; 2620% in data set [4]; 100% in data set [5].

B2: mature form of the protein-glutaminase mutant Tyr82Ser (protein)
chain: LASVIPDVATLNSLFNQIKNQSCGTSTASSPCITFRYPVDGCYARAHKMRQILMNNGYDCEKQFVYGNLKASTGTCCVAWSSHVAILVSYKNASGVTEKRIIDPSLFSSGPVTDTAWRNACVNTSCGSASVSSYANTAGNVYYRSPSNSYLYDNNLINTNCVLTKFSLLSGCSPSPAPDVSSCGF
Consider B2, for which the Ratio (Y82S/Wild-type) amounted to 1.6 in data set [6]; 0.7 in data set [7]; 4.2 in data set [8]; 5 in data set [3]; 1 in data set [5]. The Relative activity (%) amounted to 701% in data set [1]; 531% in data set [2]; 309% in data set [3]; 4270% in data set [4]; 100% in data set [5].
